Reference: patent US20230279077A1

What was measured:
[1] = target: HSV-1 glycoprotein D-Fc fusion protein (HSV-1) (UniProt Q69091); assay: SPR, G-Fc captured on anti-human IgG
[2] = target: HSV-1 glycoprotein D-Fc fusion protein (HSV-1) (UniProt Q69091); assay: phage ELISA, glycoprotein D coated, anti-M13 HRP; well C10
[3] = target: HSV-1 glycoprotein D-Fc fusion protein (HSV-1) (UniProt Q69091); assay: SPR, G-Fc captured on anti-human IgG; high end tied to G75 by Table 6
[4] = target: HSV-1 glycoprotein D-Fc fusion protein (HSV-1) (UniProt Q69091); assay: SPR Biacore T200, single cycle kinetics, G-Fc captured on anti-human IgG, 1:1 fit
[5] = target: HSV-1 glycoprotein D-Fc fusion protein (HSV-1) (UniProt Q69091); assay: SPR Biacore T200, single cycle kinetics, G-Fc captured on anti-human IgG, 1:1 fit, second run

B1: 3-G-75_M13R (VHH, not shown: small tags and cut ends)
VHH: QVKLEESGGGVVQDGGSLRLSCAAIEQFFTTNAMAWFRQAPGKERELVAATDWSGQSTSYADSVKGRFTISRDTAKNVMYLQMNILHTEDTAVYYCARAPGRVLLTSDLESYTIWGQGTQVTVSS
Kd [1]: 4 nM | A450 nm [2]: 1.13 | Kd [3]: 4 nM | Kd [4]: 4.02 nM | koff [4]: 0.0139 s⁻¹ | kon [4]: 3.47e+06 M⁻¹ s⁻¹ | Kd [5]: 3.86 nM | koff [5]: 0.0152 s⁻¹ | kon [5]: 3.93e+06 M⁻¹ s⁻¹
